Reference: IntAct's records for PubMed 35512704

B1: Speckle-type POZ protein (Homo sapiens), O43791 (parent)
chain: MSRVPSPPPPAEMSSGPVAESWCYTQIKVVKFSYMWTINNFSFCREEMGEVIKSSTFSSGANDKLKWCLRVNPKGLDEESKDYLSLYLLLVSCPKSEVRAKFKFSILNAKGEETKAMESQRAYRFVQGKDWGFKKFIRRDFLLDEANGLLPDDKLTLFCEVSVVQDSVNISGQNTMNMVKVPECRLADELGGLWENSRFTDCCLCVAGQEFQAHKAILAARSPVFSAMFEHEMEESKKNRVEINDVEPEVFKEMMCFIYTGKAPNLDKMADDLLAAADKYALERLKVMCEDALCSNLSVENAAEILILADLHSADQLKTQAVDFINYHASDVLETSGWKSMVVSHPHLVAEAYRSLASAQCPFLGPPRKRLKQS

Variants of: B1
Conditions: with foxo3_human FOXO3, O43524
Sequence of foxo3_human FOXO3, O43524 (O43524 whole entry): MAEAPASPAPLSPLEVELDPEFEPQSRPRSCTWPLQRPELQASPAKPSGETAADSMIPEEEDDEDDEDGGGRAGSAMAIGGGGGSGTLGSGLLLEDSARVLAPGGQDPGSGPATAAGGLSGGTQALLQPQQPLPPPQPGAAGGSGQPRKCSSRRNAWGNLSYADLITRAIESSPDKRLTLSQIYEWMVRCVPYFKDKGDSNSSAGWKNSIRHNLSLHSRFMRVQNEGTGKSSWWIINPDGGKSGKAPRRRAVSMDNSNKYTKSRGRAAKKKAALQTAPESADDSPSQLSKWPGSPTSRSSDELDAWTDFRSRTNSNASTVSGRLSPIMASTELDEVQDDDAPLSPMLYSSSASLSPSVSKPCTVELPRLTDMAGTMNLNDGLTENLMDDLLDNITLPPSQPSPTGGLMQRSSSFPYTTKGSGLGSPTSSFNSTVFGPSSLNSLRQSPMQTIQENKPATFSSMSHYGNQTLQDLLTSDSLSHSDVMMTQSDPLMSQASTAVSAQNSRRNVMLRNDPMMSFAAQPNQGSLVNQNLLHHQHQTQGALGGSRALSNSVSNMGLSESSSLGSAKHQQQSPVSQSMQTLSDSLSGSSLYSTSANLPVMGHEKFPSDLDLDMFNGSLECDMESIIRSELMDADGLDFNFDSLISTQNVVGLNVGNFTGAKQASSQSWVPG

Variant | effect of a mutation on the interaction
Y87C | with no effect

Variants of: B1
Conditions: with fzr1_human FZR1, Q9UM11

Variant | effect of a mutation on the interaction
Y87C | with no effect

Variants of: B1
Conditions: with gbra6_human GABRA6, Q16445
Sequence of gbra6_human GABRA6, Q16445 (Q16445 whole entry): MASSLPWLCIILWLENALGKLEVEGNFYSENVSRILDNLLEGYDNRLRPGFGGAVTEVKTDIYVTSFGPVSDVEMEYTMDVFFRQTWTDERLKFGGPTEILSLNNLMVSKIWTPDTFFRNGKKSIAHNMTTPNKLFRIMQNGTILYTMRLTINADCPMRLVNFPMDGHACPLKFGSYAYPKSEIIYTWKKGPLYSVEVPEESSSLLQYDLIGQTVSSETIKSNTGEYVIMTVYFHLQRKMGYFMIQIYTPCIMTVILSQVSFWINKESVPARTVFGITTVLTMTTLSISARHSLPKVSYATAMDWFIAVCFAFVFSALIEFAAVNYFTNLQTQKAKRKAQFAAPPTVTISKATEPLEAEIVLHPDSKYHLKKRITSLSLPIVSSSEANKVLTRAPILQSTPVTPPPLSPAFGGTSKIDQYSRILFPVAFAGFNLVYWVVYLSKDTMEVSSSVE

Variant | effect of a mutation on the interaction
Y87C | with no effect

Variants of: B1
Conditions: with gata1_human GATA1, P15976

Variant | effect of a mutation on the interaction
Y87C | with no effect

Variants of: B1
Conditions: with p66b_human GATAD2B

Variant | effect of a mutation on the interaction
Y87C | with no effect

Variants of: B1
Conditions: with gna11_human GNA11, P29992

Variant | effect of a mutation on the interaction
Y87C | with no effect

Variants of: B1
Conditions: with gna13_human GNA13, Q14344
Sequence of gna13_human GNA13, Q14344 (Q14344 whole entry): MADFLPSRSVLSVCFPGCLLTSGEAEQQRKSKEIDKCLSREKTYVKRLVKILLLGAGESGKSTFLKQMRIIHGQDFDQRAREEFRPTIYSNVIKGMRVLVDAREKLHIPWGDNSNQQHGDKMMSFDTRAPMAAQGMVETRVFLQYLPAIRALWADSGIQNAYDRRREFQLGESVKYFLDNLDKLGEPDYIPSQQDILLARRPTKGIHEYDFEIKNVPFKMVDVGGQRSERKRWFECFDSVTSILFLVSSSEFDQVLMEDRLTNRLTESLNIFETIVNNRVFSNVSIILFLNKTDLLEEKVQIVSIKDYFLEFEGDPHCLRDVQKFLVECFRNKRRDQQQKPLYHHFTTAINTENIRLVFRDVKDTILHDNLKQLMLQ

Variant | effect of a mutation on the interaction
Y87C | with no effect

Variants of: B1
Conditions: with gnaq_human GNAQ

Variant | effect of a mutation on the interaction
Y87C | with no effect

Variants of: B1
Conditions: with grm1_human GRM1, Q13255

Variant | effect of a mutation on the interaction
Y87C | with no effect

Variants of: B1
Conditions: with grm3_human GRM3, Q14832

Variant | effect of a mutation on the interaction
Y87C | with no effect

Variants of: B1
Conditions: with gsk3b_human GSK3B

Variant | effect of a mutation on the interaction
Y87C | with no effect

Variants of: B1
Conditions: with gtpb4_human GTPBP4, Q9BZE4

Variant | effect of a mutation on the interaction
Y87C | with no effect

Variants of: B1
Conditions: with h33_human H3-3A

Variant | effect of a mutation on the interaction
Y87C | with no effect

Variants of: B1
Conditions: with hdac1_human HDAC1, Q13547

Variant | effect of a mutation on the interaction
Y87C | with no effect

Variants of: B1
Conditions: with hdac3_human HDAC3, O15379

Variant | effect of a mutation on the interaction
Y87C | with no effect

Variants of: B1
Conditions: with hgf_human HGF

Variant | effect of a mutation on the interaction
Y87C | with no effect

Variants of: B1
Conditions: with h31_human H3C1, P68431

Variant | effect of a mutation on the interaction
Y87C | with no effect

Variants of: B1
Conditions: with hlab_human HLA-B

Variant | effect of a mutation on the interaction
Y87C | with no effect

Variants of: B1
Conditions: with hnf1a_human HNF1A

Variant | effect of a mutation on the interaction
Y87C | with no effect

Variants of: B1
Conditions: with igf1r_human IGF1R

Variant | effect of a mutation on the interaction
Y87C | with no effect

Variants of: B1
Conditions: with il7ra_human IL7R

Variant | effect of a mutation on the interaction
Y87C | with no effect

Variants of: B1
Conditions: with int12_human INTS12, Q96CB8
Sequence of int12_human INTS12, Q96CB8 (Q96CB8 whole entry): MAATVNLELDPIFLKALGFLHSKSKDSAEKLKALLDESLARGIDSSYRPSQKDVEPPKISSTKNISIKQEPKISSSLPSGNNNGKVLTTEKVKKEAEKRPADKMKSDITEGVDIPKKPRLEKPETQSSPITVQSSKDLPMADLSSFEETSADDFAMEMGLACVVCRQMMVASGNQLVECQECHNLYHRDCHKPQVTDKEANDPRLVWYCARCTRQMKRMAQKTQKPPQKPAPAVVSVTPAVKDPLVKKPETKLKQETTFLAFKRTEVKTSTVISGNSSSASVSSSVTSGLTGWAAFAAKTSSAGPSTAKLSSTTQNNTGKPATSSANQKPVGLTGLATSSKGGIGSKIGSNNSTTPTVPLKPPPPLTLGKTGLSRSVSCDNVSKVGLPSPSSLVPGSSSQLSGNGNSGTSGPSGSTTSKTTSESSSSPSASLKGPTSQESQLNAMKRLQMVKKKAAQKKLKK

Variant | effect of a mutation on the interaction
Y87C | with no effect

Variants of: B1
Conditions: with ist1_human IST1, P53990

Variant | effect of a mutation on the interaction
Y87C | with no effect

Variants of: B1
Conditions: with jak1_human JAK1, P23458
Sequence of jak1_human JAK1, P23458 (P23458 whole entry): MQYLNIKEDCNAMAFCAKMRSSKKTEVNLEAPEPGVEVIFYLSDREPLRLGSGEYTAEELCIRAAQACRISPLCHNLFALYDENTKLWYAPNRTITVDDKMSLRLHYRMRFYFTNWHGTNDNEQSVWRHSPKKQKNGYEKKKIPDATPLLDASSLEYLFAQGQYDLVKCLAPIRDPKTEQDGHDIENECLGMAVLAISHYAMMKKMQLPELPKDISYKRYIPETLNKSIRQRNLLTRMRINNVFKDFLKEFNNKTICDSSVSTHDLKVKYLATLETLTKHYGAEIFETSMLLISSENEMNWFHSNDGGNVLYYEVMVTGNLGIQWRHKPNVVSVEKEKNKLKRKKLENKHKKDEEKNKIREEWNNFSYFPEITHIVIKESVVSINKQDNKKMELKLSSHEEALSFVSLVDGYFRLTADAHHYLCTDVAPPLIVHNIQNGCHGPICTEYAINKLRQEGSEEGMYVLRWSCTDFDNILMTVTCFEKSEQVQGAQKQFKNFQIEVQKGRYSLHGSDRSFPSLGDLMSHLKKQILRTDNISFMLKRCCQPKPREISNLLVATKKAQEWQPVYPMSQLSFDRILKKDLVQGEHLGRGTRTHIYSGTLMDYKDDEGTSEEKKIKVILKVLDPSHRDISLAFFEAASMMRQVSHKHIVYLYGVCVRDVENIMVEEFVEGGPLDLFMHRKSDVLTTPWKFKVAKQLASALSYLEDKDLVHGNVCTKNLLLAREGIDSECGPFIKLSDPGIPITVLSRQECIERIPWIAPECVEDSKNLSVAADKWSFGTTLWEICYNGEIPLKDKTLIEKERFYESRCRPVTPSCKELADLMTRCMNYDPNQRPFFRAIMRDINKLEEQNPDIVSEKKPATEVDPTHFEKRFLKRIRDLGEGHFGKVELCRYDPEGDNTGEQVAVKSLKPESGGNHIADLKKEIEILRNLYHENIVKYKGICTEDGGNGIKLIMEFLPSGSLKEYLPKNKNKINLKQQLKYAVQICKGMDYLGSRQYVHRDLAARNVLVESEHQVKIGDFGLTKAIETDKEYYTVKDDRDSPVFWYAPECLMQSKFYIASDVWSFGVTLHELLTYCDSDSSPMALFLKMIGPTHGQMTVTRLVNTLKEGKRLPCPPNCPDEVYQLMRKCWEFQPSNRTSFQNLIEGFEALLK

Variant | effect of a mutation on the interaction
Y87C | with no effect

Variants of: B1
Conditions: with jak3_human JAK3, P52333

Variant | effect of a mutation on the interaction
Y87C | with no effect

Variants of: B1
Conditions: with kat2a_human KAT2A

Variant | effect of a mutation on the interaction
Y87C | with no effect

Variants of: B1
Conditions: with kdm5a_human KDM5A

Variant | effect of a mutation on the interaction
Y87C | with no effect

Variants of: B1
Conditions: with kdm5c_human KDM5C

Variant | effect of a mutation on the interaction
Y87C | with no effect

Variants of: B1
Conditions: with kdm6a_human KDM6A

Variant | effect of a mutation on the interaction
Y87C | with no effect

Variants of: B1
Conditions: with vgfr2_human KDR

Variant | effect of a mutation on the interaction
Y87C | with no effect

Variants of: B1
Conditions: with lims1_human LIMS1, P48059
Sequence of lims1_human LIMS1, P48059 (P48059 whole entry): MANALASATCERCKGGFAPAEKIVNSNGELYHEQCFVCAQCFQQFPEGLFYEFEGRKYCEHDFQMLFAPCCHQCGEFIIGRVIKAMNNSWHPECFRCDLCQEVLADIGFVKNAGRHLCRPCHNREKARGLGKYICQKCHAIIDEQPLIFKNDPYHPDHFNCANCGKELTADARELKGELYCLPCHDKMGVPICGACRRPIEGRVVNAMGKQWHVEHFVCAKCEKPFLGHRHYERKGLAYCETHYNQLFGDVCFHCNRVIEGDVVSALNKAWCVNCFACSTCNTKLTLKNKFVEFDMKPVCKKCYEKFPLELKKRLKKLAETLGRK

Variant | effect of a mutation on the interaction
Y87C | with no effect

Variants of: B1
Conditions: with maga6_human MAGEA6, P43360

Variant | effect of a mutation on the interaction
Y87C | with no effect

Variants of: B1
Conditions: with m3k1_human MAP3K1, Q13233

Variant | effect of a mutation on the interaction
Y87C | with no effect

Variants of: B1
Conditions: with mk10_human MAPK10, P53779

Variant | effect of a mutation on the interaction
Y87C | with no effect

Variants of: B1
Conditions: with mk14_human MAPK14, Q16539
Sequence of mk14_human MAPK14, Q16539 (Q16539 whole entry): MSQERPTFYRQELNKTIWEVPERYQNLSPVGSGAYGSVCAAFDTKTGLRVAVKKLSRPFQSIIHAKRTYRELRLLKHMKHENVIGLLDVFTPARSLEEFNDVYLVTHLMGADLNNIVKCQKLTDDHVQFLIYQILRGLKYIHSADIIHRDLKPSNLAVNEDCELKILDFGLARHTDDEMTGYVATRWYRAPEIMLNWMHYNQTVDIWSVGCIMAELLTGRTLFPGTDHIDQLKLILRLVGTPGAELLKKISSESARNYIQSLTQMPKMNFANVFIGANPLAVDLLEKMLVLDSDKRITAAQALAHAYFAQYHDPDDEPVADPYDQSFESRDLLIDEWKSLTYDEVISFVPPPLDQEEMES

Variant | effect of a mutation on the interaction
Y87C | with no effect

Variants of: B1
Conditions: with mk03_human MAPK3, P27361
Sequence of mk03_human MAPK3, P27361 (P27361 whole entry): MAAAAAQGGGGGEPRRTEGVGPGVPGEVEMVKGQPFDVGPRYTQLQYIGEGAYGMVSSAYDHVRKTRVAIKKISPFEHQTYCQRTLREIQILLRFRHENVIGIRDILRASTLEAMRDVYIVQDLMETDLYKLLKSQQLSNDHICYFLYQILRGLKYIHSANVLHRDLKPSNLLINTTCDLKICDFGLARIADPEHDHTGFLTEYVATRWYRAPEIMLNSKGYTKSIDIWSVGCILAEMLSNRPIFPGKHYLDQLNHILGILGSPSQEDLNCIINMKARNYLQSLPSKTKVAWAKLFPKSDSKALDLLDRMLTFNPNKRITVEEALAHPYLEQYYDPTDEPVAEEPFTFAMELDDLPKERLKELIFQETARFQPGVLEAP

Variant | effect of a mutation on the interaction
Y87C | with no effect

Variants of: B1
Conditions: with mk04_human MAPK4, P31152

Variant | effect of a mutation on the interaction
Y87C | with no effect

Variants of: B1
Conditions: with mk06_human MAPK6, Q16659
Sequence of mk06_human MAPK6, Q16659 (Q16659 whole entry): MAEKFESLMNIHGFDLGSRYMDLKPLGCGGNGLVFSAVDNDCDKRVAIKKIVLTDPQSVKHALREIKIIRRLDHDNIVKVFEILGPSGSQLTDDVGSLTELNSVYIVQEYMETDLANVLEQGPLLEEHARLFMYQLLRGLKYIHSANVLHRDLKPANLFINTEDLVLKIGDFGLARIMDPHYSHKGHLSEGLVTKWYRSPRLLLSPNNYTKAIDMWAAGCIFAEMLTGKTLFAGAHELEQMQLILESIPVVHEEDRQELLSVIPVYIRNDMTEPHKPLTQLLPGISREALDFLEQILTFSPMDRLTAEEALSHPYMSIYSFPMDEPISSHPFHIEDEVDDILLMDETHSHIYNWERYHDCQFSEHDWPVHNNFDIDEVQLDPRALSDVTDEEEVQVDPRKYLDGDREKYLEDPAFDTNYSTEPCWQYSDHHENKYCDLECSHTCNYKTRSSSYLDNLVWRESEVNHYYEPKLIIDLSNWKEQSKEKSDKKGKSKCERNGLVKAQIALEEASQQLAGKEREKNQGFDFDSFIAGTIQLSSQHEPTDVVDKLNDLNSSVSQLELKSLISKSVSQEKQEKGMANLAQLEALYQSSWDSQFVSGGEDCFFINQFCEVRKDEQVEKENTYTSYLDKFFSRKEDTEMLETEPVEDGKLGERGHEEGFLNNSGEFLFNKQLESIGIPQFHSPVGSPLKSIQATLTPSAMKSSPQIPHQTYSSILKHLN

Variant | effect of a mutation on the interaction
Y87C | with no effect
